Reference: IntAct's records for PubMed 17525731

What was measured:
creb1_mouse Creb1 [1] = target: creb1_mouse Creb1 (UniProt Q01147)
creb1_mouse Creb1 [2] = target: creb1_mouse Creb1 (UniProt Q01147); remark: listed apart in the source

Sequence of creb1_mouse Creb1 (Q01147 whole entry): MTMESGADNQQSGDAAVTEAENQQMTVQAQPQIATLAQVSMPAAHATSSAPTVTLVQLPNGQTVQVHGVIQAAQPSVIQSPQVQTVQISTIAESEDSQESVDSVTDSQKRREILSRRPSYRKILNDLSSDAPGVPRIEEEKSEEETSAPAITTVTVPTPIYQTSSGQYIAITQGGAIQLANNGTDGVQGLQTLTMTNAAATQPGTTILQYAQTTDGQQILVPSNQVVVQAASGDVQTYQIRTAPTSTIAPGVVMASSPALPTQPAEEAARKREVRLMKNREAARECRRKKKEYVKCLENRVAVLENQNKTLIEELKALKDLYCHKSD
Sequence of Creb1, Q01147-1 (Q01147 other isoform, or with tags, fused parts or gaps): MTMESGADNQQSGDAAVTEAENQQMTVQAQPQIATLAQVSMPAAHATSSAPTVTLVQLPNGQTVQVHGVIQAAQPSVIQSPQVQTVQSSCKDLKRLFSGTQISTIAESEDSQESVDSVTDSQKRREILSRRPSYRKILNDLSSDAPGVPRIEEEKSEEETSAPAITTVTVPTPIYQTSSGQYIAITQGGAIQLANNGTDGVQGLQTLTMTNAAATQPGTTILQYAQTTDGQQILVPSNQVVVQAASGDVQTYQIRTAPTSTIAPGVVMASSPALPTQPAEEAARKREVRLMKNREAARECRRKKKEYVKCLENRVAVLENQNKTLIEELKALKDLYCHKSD

Row | effect of a mutation on the interaction (Creb1, Q01147-1) | effect of a mutation on the interaction (creb1_mouse Creb1 [1]) | effect of a mutation on the interaction (creb1_mouse Creb1 [2]) | Substance
1 | disrupting interaction | disrupting interaction | – | Histone lysine acetyltransferase CREBBP (Mus musculus), P45481 A654Q
2 | – | – | disrupting interaction | Histone acetyltransferase p300 (Homo sapiens), Q09472 Y638A
3 | – | – | disrupting interaction | Histone acetyltransferase p300 (Homo sapiens), Q09472 Y630A
4 | – | – | disrupting interaction | Histone acetyltransferase p300 (Homo sapiens), Q09472 A634Q
5 | disrupting interaction | disrupting interaction | – | Histone lysine acetyltransferase CREBBP (Mus musculus), P45481 Y650A
6 | disrupting interaction | disrupting interaction | – | Histone lysine acetyltransferase CREBBP (Mus musculus), P45481 Y658A
